Results as given in WO2002045743A2 (dated 2002).

T1: S87 peptide
T1 construct: Synthetic HVR 1 peptide
T1 peptide: CTGFSKHNNMGSQQKV

B1: mAb 2P24 (antibody, V domains shown)
V domain 1: EFQLQQSGAELVRPGPLVTLSCKASGFNIKDYYMNWVKQRPEQGLEWIGRIDPKNGNALYDPKFQDKARITADTSSNTAYLQLNSLTSEATAVYYCSSGWLDYWGQGTSLAVYS
V domain 2: DIVMTQSPASLAVFRGQRATISYRASKSVSTSGYSYMHWNQQKPGQPPRLLIYLVSNLESGVPARFSGSGSGTDFTLNIHPVEEEDAATYYCQHIRELTAFGGGTK
B2: mAb 15H4 (antibody, V domains shown)
VH: QVQLQQSGAELARPGASVKLSCKASGYTFTRYWMQWVKQKPGQGLEWIGAIYCGDGDTRFTQKFKGKATLTADKSSSTAYMQLSNLASEDSAVYYCVIYGNYYDAMDYWGQGTSVTVSS
VL: DIVMTQAPLSMPVSLGDQASISGRSSQSLVHSNGNTYLHWYLQKPGQSPKLLIHKVSKRFSGVPDRFSGSGSGTDFTLKIRRVEAEDLGVYFCSQNTHVPFTFGGGTK

Assays:
[1] = target: S85 peptide; assay: IAsys biosensor, BSA-HVR1 peptide conjugate
[2] = target: S67 peptide; assay: IAsys biosensor, BSA-HVR1 peptide conjugate
[3] = target: S83 peptide; assay: peptide EIA, Nunc-Immuno and CovaLab plates
[4] = target: S82 peptide; assay: peptide EIA, Nunc-Immuno and CovaLab plates
[5] = target: DH2 peptide; assay: peptide EIA, Nunc-Immuno and CovaLab plates
[6] = target: S53 peptide; assay: peptide EIA, Nunc-Immuno and CovaLab plates
[7] = target: EH1 peptide; assay: peptide EIA, Nunc-Immuno and CovaLab plates
[8] = target: S54 peptide; assay: peptide EIA, Nunc-Immuno and CovaLab plates
[9] = target: S85 peptide; assay: peptide EIA, Nunc-Immuno and CovaLab plates
[10] = target: G3895 peptide; assay: peptide EIA, Nunc-Immuno and CovaLab plates
[11] = target: G4720 peptide; assay: peptide EIA, Nunc-Immuno and CovaLab plates
[12] = target: G4309 peptide; assay: peptide EIA, Nunc-Immuno and CovaLab plates
[13] = target: S67 peptide; assay: peptide EIA, Nunc-Immuno and CovaLab plates
[14] = target: S52 peptide; assay: peptide EIA, Nunc-Immuno and CovaLab plates
[15] = target: S66 peptide; assay: peptide EIA, Nunc-Immuno and CovaLab plates
[16] = target: T1, S87 peptide; assay: peptide EIA, Nunc-Immuno and CovaLab plates
[17] = target: US1 peptide; assay: peptide EIA, Nunc-Immuno and CovaLab plates

Row | Binder | Kd [1] | Kd [2] | EIA Sample/Cutoff ratio (S/CO) [3] | EIA Sample/Cutoff ratio (S/CO) [4] | EIA Sample/Cutoff ratio (S/CO) [5] | EIA Sample/Cutoff ratio (S/CO) [6] | EIA Sample/Cutoff ratio (S/CO) [7] | EIA Sample/Cutoff ratio (S/CO) [8] | EIA Sample/Cutoff ratio (S/CO) [9] | EIA Sample/Cutoff ratio (S/CO) [10] | EIA Sample/Cutoff ratio (S/CO) [11] | EIA Sample/Cutoff ratio (S/CO) [12] | EIA Sample/Cutoff ratio (S/CO) [13] | EIA Sample/Cutoff ratio (S/CO) [14] | EIA Sample/Cutoff ratio (S/CO) [15] | EIA Sample/Cutoff ratio (S/CO) [16] | EIA Sample/Cutoff ratio (S/CO) [17]
1 | B1 | 24.3 nM | 18.1 nM | 11.5 S/CO | 16.1 S/CO | 18.6 S/CO | 5.7 S/CO | 24.8 S/CO | 18.9 S/CO | 25.6 S/CO | 25.4 S/CO | 24 S/CO | 1.1 S/CO | 24.7 S/CO | 1.4 S/CO | 12.7 S/CO | – | –
2 | B2 | 58.5 nM | 110 nM | 2.3 S/CO | 3.3 S/CO | 12.9 S/CO | – | 16.9 S/CO | 3.9 S/CO | 24.4 S/CO | 7.9 S/CO | 14.2 S/CO | – | 25.1 S/CO | 1.9 S/CO | 24.8 S/CO | 8.9 S/CO | 21 S/CO
